Measurements published in article PMC9424733, “Lysine acetylation of Escherichia coli lactate dehydrogenase regulates enzyme activity and lactate synthesis” (Frontiers in Bioengineering and Biotechnology, 2022).

B1: Escherichia coli lactate dehydrogenase (LdhA), wild type (enzyme, UniProt P52643 1-329, looked up)
chain: MKLAVYSTKQYDKKYLQQVNESFGFELEFFDFLLTEKTAKTANGCEAVCIFVNDDGSRPVLEELKKHGVKYIALRCAGFNNVDLDAAKELGLKVVRVPAYDPEAVAEHAIGMMMTLNRRIHRAYQRTRDANFSLEGLTGFTMYGKTAGVIGTGKIGVAMLRILKGFGMRLLAFDPYPSAAALELGVEYVDLPTLFSESDVISLHCPLTPENYHLLNEAAFEQMKNGVMIVNTSRGALIDSQAAIEALKNQKIGSLGMDVYENERDLFFEDKSNDVIQDDVFRRLSACHNVLFTGHQAFLTAEALTSISQTTLQNLSNLEKGETCPNELV
notes: D-lactate dehydrogenase LdhA of Escherichia coli; Partly acetylated on K9, K70, K154 and K248 when grown with 2% glucose (mass spectrometry); also called EcLdhA; NAD-dependent lactate dehydrogenase
B2: Escherichia coli LdhA (K248Q) (enzyme, UniProt P52643 1-329, looked up)
chain: MKLAVYSTKQYDKKYLQQVNESFGFELEFFDFLLTEKTAKTANGCEAVCIFVNDDGSRPVLEELKKHGVKYIALRCAGFNNVDLDAAKELGLKVVRVPAYDPEAVAEHAIGMMMTLNRRIHRAYQRTRDANFSLEGLTGFTMYGKTAGVIGTGKIGVAMLRILKGFGMRLLAFDPYPSAAALELGVEYVDLPTLFSESDVISLHCPLTPENYHLLNEAAFEQMKNGVMIVNTSRGALIDSQAAIEALQNQKIGSLGMDVYENERDLFFEDKSNDVIQDDVFRRLSACHNVLFTGHQAFLTAEALTSISQTTLQNLSNLEKGETCPNELV
notes: D-lactate dehydrogenase LdhA of Escherichia coli with K248Q (mimics acetyl-lysine); Same construct as m1 with the point mutation; also called LdhA K248Q mutant
B3: Escherichia coli LdhA (K248R) (enzyme, UniProt P52643 1-329, looked up)
chain: MKLAVYSTKQYDKKYLQQVNESFGFELEFFDFLLTEKTAKTANGCEAVCIFVNDDGSRPVLEELKKHGVKYIALRCAGFNNVDLDAAKELGLKVVRVPAYDPEAVAEHAIGMMMTLNRRIHRAYQRTRDANFSLEGLTGFTMYGKTAGVIGTGKIGVAMLRILKGFGMRLLAFDPYPSAAALELGVEYVDLPTLFSESDVISLHCPLTPENYHLLNEAAFEQMKNGVMIVNTSRGALIDSQAAIEALRNQKIGSLGMDVYENERDLFFEDKSNDVIQDDVFRRLSACHNVLFTGHQAFLTAEALTSISQTTLQNLSNLEKGETCPNELV
notes: D-lactate dehydrogenase LdhA of Escherichia coli with K248R; Same construct as m1 with the point mutation; also called LdhA K248R mutant
B4: Escherichia coli LdhA (D279N) (enzyme, UniProt P52643 1-329, looked up)
chain: MKLAVYSTKQYDKKYLQQVNESFGFELEFFDFLLTEKTAKTANGCEAVCIFVNDDGSRPVLEELKKHGVKYIALRCAGFNNVDLDAAKELGLKVVRVPAYDPEAVAEHAIGMMMTLNRRIHRAYQRTRDANFSLEGLTGFTMYGKTAGVIGTGKIGVAMLRILKGFGMRLLAFDPYPSAAALELGVEYVDLPTLFSESDVISLHCPLTPENYHLLNEAAFEQMKNGVMIVNTSRGALIDSQAAIEALKNQKIGSLGMDVYENERDLFFEDKSNDVIQDNVFRRLSACHNVLFTGHQAFLTAEALTSISQTTLQNLSNLEKGETCPNELV
notes: D-lactate dehydrogenase LdhA of Escherichia coli with D279N; Same construct as m1 with the point mutation; also called LdhA D279N mutant

Molecular target: the molecule itself
Assay: SEC; gel filtration analysis of purified LdhA and mutants; retention volumes of the highest peaks compared; column and buffer not told

Stoichiometry N, 4:
B1
B2
B3
B4
